For data set [1], the target named is A3G-CTD2 (catalytically active), crystal and NMR construct (human) (UniProt Q9HC16). Briefly: competitive inhibition of deamination, real-time 1H NMR. The conditions noted are these: N at position 6 = 2'-deoxy-zebularine (replaces target C); hydrated to 4-(R)-hydroxy-3,4-dihydro form in the active enzyme; DTT, 0.002% Tween 20, 50 nM protein, RED-tris-NTA dye, 23 C; NMR inhibition: 50 mM NaPO4 pH 6.5, 100 mM NaCl, 0.00.

For data set [2], the target named is A3G-CTD2* (catalytically inactive), MST construct E259A (human) (UniProt Q9HC16). Briefly: MST. Particulars: N at position 6 = 2'-deoxy-zebularine (replaces target C); hydrated to 4-(R)-hydroxy-3,4-dihydro form in the active enzyme; MST: 20 mM Bis-Tris pH 6.5, 100 mM NaCl, 1 mM DTT, 0.002% Tween 20, 50 nM protein, RED-tris-NTA dye, 23 C; NMR inhibition: 50 mM NaPO4 pH 6.5, 100 mM NaCl ….
A3G-CTD2* (catalytically inactive), MST construct E259A (human), sequence (Q9HC16 191-384 E259A): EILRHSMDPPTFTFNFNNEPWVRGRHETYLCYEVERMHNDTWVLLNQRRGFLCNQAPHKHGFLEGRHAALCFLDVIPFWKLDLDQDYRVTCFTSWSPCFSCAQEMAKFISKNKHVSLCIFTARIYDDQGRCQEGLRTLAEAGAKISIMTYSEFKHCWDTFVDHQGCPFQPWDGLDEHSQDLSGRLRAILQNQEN

Data set [3] concerns the target A3G-CTD2 (catalytically active soluble variant), MST construct (human) (UniProt Q9HC16). The data set can be described thus: MST. The conditions noted are these: 23 C, apparent Kd, active enzyme hydrates dZ, N at position 6 = 2'-deoxy-zebularine (replaces target C), hydrated to 4-(R)-hydroxy-3,4-dihydro form in the active enzyme, MST: 20 mM Bis-Tris pH 6.5, 100 mM NaCl, 1 mM DTT, 0.002% Tween 20, 50 nM protein, RED-tris-NTA dye, NMR inhibition: 50 mM NaPO4 pH 6.5, 100 mM NaCl ….

Our source for the Ki and Kd values is paper PMC9675756.

A3G-CTD2 (catalytically active), crystal and NMR construct (human), sequence (Q9HC16 191-384): as the sequence (Q9HC16 191-384 E259A) above, with A69E counted along it

A word on the Ki: it is the dissociation constant of the complex between target and ligand, obtained from inhibition or displacement. A higher Ki goes with weaker binding. “AATCCNAAA [5'-AATCCdZAAA (dZ-ssDNA inhibitor)]” displayed a Ki in data set [1] of 3.07 µM. In addition, the Kd in data set [2] came to 14.3 µM; in data set [3], 270 nM.
